Assay results: US20260209306A1 (ALIVEGEN, published 2026)
Changes are numbered by the printed parent chain. One block for each binder: values may come before it.

Tests used:
activin B = molecular target: T1, activin B (UniProt P09529 293-407); test: cell-based or functional assay
T1 sequence (looked up): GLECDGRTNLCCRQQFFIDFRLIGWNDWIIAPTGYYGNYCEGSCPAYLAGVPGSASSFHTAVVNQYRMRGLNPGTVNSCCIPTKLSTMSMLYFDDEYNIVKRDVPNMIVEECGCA

BMP9 [1] = molecular target: T2, BMP9 (UniProt Q9UK05 320-429); test: cell-based or functional assay
T2 sequence (looked up): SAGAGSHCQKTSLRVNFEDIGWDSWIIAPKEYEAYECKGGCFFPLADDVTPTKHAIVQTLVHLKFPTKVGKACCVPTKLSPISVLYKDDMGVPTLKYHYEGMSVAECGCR

myostatin [2] = molecular target: T3, myostatin (UniProt O14793 267-375); test: cell-based or functional assay
T3 sequence (looked up): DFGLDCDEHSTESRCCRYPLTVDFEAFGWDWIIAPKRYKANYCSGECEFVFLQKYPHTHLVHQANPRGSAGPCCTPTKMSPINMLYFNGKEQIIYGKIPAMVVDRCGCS

activin A = molecular target: T4, activin A (UniProt P08476 311-426); test: cell-based or functional assay
T4 sequence (looked up): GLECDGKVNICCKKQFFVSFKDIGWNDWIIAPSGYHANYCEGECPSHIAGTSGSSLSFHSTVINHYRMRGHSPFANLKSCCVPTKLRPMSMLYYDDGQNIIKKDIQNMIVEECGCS

myostatin [3] = molecular target: T3, myostatin; test: Octet Red BLI; protein on AHC biosensor, 10 nM ligand; legend +++ KD <10^-8M
Procedure: (§1) Myostatin and BMP9 binding activities of various hybrid ActRIIB ligand trap proteins were initially analyzed using Octect Red (ForteBio). Purified proteins or conditioned media were individually loaded to AHC biosensors with maximum loading. Following a baseline washing phase, the sensors were exposed to 10 nM myostatin or BMP9, respectively, for an association step followed by a dissociation step. All experiments were performed with shaking at 1,000 rpm. Binding activity was analyzed using ForteBio's software with KD being calculated using the ratio Kd/Ka.

BMP9 [4] = molecular target: T2, BMP9; test: Octet Red BLI; trap loaded on AHC biosensor
Procedure: as §1

B1: wild-type ActRIIB-ECD-Fc fusion protein (Fc fusion, not shown: a dimerising Fc or GST)
chain: ETRECIYYNANWELERTNQSGLERCEGEQDKRLHCYASWRNSSGTIELVKKGCWLDDFNCYDRQECVATEENPQVYFCCCEGNFCNERFTHLPEAGGPEVTYEPPPTAPTGGGGSESKYGPPCPPCP
Cell-Based IC50 (nM) Against Activin B; C2C12-CAGA-luc reporter (activin B): 1.04 nM | Cell-Based IC50 (nM) Against BMP9; C2C12-BRE-luc reporter (BMP9 [1]): 3.4 nM | Cell-Based IC50 (nM) Against Myostatin; C2C12-CAGA-luc reporter (myostatin [2]): 1.24 nM | Cell-Based IC50 (nM) Against Activin A; C2C12-CAGA-luc reporter (activin A): 1.27 nM

B3: AG-0027 hybrid ActRIIB ligand trap protein (Fc fusion, not shown: a dimerising Fc or GST)
chain: B1 chain with E28D, F58I, E70K
Cell-Based IC50 (nM) Against Activin B; C2C12-CAGA-luc reporter (activin B): 1.3 nM | Cell-Based IC50 (nM) Against Myostatin; C2C12-CAGA-luc reporter (myostatin [2]): 1.14 nM | Cell-Based IC50 (nM) Against Activin A; C2C12-CAGA-luc reporter (activin A): 1.62 nM

Second part, the binder after the results:

KD (myostatin [3]): < 10 nM | binding result (BMP9 [4]): no binding (tested: 10 nM BMP9)
B2: AG-0011 hybrid ActRIIB ligand trap protein (Fc fusion)
chain: B1 chain with E28D, A68E, T69K, E70K, E71D, N72S, Q74E, F84M
notes: ECD - linker - hinge linker - Fc; signal peptide left out; not shown: human Fc domain

Cell-Based IC50 (nM) Against Activin B; C2C12-CAGA-luc reporter (activin B): 2.1 nM | Cell-Based IC50 (nM) Against Myostatin; C2C12-CAGA-luc reporter (myostatin [2]): 0.95 nM | Cell-Based IC50 (nM) Against Activin A; C2C12-CAGA-luc reporter (activin A): 1.15 nM
B4: AG-0014 hybrid ActRIIB ligand trap protein (Fc fusion, not shown: a dimerising Fc or GST)
chain: B1 chain with E26Y, E28D, Q29K, L33R
